The results in this text go back to paper doi:10.1101/2023.12.19.572481 (bioRxiv, 2023).

The data set deals with the molecule itself. Description: high-speed atomic force microscopy.

B1: Recombinant Human Neuronal Pentraxin 1 Protein (NP1) (natural protein, UniProt Q15818 23-432, looked up)
chain: QDFGPTRFICTSVPVDADMCAASVAAGGAEELRSSVLQLRETVLQQKETILSQKETIRELTAKLGRCESQSTLDPGAGEARAGGGRKQPGSGKNTMGDLSRTPAAETLSQLGQTLQSLKTRLENLEQYSRLNSSSQTNSLKDLLQSKIDELERQVLSRVNTLEEGKGGPRNDTEERVKIETALTSLHQRISELEKGQKDNRPGDKFQLTFPLRTNYMYAKVKKSLPEMYAFTVCMWLKSSATPGVGTPFSYAVPGQANELVLIEWGNNPMEILINDKVAKLPFVINDGKWHHICVTWTTRDGVWEAYQDGTQGGSGENLAPYHPIKPQGVLVLGQEQDTLGGGFDATQAFVGELAHFNIWDRKLTPGEVYNLATCSTKALSGNVIAWAESHIEIYGGATKWTFEACRQIN
On to B1, for which the binding result is reported as “binds”.
